Experimental data from publication doi:10.1101/2024.12.05.626941 (bioRxiv, 2024).

Target: the molecule itself
Assay: SEC

B1: Physcomitrella patens adenosine kinase 1 (PpADK1) (enzyme, UniProt O49923 1-343, looked up)
chain: MASEGVLLGMGNPLLDISCVVDDAFLEKYGLTLNNAILAEDKHLPMYKELAANPDVEYIAGGATQNTIRIAQWMLGESNATSYFGCVGKDEYGDRMFKLASEGGVNIRYDVDEDLPTGTCGVLVVKGERSLVANLSAANKYKIDHLKKPENWAFVEKAKYIYSAGFFLTVSPESMMTVAKHAAETGKYYMINLAAPFICQFFKDPLMELFPYVDFIFGNESEARAFAQVQGWETEDTKVIAVKLAALPKAGGTHKRVAVITQGTDPTIVAEDGKVTEFPVTPIPKEKLVDTNAAGDSFVGGFLSQLVLGKDIAQCVRAGNYAASVIIQRSGCTFPSKPSFESQ
stoichiometry N: 2
